From patent CN113135995A (SHANGHAI INST OF BIOLOGICAL PRODUCTS CO LTD, dated 2021) come the findings set out here.

Experiment [1] addresses T1, HER3胞外区重组蛋白 (recombinant HER3 extracellular domain protein, expressed in CHO cells) (human, UniProt P21860 20-643).
T1 construct: also called HER3蛋白
Put plainly: ProteOn XPR36 SPR; antibody captured by goat anti-human IgG Fc on GLM chip, HER3 protein 0.625-10 nM as analyte.

Experiment [2] concerns the target T1, HER3胞外区重组蛋白 (recombinant HER3 …). Put plainly: ProteOn XPR36 SPR, ratio of KD values.
Experiment [3] addresses T2, hGH标签的HER3胞外区蛋白 (hGH-tagged HER3 extracellular domain protein) (human, UniProt P21860 20-643).
T2 construct: also called HER3分子; not shown: hGH tag
Put plainly: blocking ELISA: HRG coated, hGH-tagged HER3 ECD 1 ug/ml, antibody from 2 ug/ml in 1:3 steps, HRP anti-hGH detection.

Experiment [4] addresses 细胞表面HER3分子 (HER3 on the surface of human tumour cells) (human, UniProt P21860 20-1342). Put plainly: cell-based or functional assay.

T1 sequence (P21860 20-643 limits assumed): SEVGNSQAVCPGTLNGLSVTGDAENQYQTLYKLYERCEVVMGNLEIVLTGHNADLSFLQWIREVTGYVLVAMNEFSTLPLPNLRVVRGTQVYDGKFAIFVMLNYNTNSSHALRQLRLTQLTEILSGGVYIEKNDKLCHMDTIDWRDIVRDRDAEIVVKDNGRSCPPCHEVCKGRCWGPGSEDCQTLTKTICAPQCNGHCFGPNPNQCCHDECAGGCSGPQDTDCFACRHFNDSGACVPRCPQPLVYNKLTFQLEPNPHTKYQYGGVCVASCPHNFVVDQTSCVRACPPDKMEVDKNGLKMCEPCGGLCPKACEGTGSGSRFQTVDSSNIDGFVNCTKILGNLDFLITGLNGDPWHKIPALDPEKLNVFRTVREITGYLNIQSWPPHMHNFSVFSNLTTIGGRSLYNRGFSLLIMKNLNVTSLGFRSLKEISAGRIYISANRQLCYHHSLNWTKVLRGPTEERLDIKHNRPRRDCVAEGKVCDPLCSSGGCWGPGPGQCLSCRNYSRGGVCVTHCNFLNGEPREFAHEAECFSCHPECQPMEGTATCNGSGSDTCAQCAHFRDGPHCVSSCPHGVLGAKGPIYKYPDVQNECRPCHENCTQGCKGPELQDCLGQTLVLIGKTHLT
T2 sequence (P21860 20-643): as the sequence (P21860 20-643 limits assumed) above
细胞表面HER3分子 (HER3 on the surface of human tumour cells), sequence (P21860 20-1342 limits assumed): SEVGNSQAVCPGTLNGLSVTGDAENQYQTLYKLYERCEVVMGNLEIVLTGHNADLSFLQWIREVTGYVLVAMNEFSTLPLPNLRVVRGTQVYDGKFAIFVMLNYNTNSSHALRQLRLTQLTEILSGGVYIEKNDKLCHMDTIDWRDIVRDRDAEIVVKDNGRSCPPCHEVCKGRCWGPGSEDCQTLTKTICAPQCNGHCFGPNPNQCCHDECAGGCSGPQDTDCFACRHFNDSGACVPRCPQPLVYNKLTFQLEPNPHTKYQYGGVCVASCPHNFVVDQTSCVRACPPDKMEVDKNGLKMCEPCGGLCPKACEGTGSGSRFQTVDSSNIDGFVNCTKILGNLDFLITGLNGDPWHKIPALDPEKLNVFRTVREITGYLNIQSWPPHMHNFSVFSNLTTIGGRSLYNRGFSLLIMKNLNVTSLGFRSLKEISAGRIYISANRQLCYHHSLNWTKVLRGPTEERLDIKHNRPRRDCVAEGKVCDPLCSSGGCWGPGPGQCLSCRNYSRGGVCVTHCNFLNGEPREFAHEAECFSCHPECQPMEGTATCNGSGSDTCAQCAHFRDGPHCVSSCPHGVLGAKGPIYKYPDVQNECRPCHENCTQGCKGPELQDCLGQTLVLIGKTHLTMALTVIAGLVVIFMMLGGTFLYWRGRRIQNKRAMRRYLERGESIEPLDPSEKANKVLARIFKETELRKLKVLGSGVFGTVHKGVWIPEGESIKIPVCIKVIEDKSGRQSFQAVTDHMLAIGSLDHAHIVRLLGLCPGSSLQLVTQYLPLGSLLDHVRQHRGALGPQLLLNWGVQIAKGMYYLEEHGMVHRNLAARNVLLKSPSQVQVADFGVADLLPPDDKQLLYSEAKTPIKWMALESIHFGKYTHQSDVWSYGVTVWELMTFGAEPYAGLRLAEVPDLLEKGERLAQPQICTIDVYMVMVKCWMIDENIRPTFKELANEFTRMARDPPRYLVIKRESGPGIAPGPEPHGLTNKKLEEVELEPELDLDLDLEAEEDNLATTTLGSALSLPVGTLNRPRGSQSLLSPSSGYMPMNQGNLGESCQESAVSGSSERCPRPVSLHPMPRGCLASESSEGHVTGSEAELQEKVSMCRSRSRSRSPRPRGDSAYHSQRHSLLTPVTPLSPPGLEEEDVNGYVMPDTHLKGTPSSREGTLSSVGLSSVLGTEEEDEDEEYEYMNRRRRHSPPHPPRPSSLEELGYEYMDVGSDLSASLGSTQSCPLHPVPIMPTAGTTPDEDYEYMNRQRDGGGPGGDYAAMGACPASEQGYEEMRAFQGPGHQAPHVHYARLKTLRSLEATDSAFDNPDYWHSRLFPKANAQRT

B1: hu1044Y抗体 (optimised humanized anti-HER3 antibody hu1044Y) (antibody, human IgG1, kappa, V domains shown)
VH: QVQLVQSGAEVKKPGSSVKVSCKASGYTFSNYWIDWVKQAPGQGLEWMGEILPGSGGTDYNEKFKGRVTITADTSTSTAYMELSSLRSEDTAVYYCARDDYDVFAYWGQGTLVTVSS
VL: DIVMTQSPGTLSLSPGERATLSCRSSKSLLHSNGITYLYWYQQKPGQAPRLLIYQMSNLASGIPDRFSSSGSGTDFTLTISRLEPEDFAVYYCAQNLELPWTFGQGTKVEIKR
notes: hu1044 with heavy chain position 27 changed from Gly to Tyr
Consider B1, for which the equilibrium dissociation constant (Kd) in experiment [1] was 0.232 nM. Besides, the “fold increase in affinity against hu1044” value in experiment [2] is ~2 倍 (fold).

B2: hu1044抗体 (humanized anti-HER3 monoclonal antibody hu1044) (antibody, V domains shown)
VH: QVQLVQSGAEVKKPGSSVKVSCKASGGTFSNYWIDWVKQAPGQGLEWMGEILPGSGGTDYNEKFKGRVTITADTSTSTAYMELSSLRSEDTAVYYCARDDYDVFAYWGQGTLVTVSS
VL: DIVMTQSPGTLSLSPGERATLSCRSSKSLLHSNGITYLYWYQQKPGQAPRLLIYQMSNLASGIPDRFSSSGSGTDFTLTISRLEPEDFAVYYCAQNLELPWTFGQGTKVEIKR
As to B2, the Kd in experiment [1] is 0.442 nM.

B3: hu1044-7Y抗体 (optimised humanized anti-HER3 antibody hu1044-7Y) (antibody, human IgG1, kappa, V domains shown)
VH: QVQLVQSGAEVKKPGSSVKVSCKASGYTFSNYWIDWVRQAPGQGLEWMGEILPGSGGTDYNEKFKGKATITADTSTSTAYMELSSLRSEDTAVYYCARDDYDVFAYWGQGTLVTVSS
VL: DIVMTQSPGTLSLSPGERATLSCRSSKSLLHSNGITYLYWYQQKPGQAPRLLIYQMSNLASGVPDRFSSSGSGTDFTLTISRLEPEDFAVYYCAQNLELPWTFGQGTKVEIKR
notes: hu1044-7 with heavy chain position 27 changed from Gly to Tyr; In the flow cytometry assays it was labelled with Dylight 488 NHS ester
On to B3, for which, in experiment [3], the 50% inhibitory concentration (IC50) is ~0.1 µg/mL. For the same molecule, the Kd in experiment [1] was found to be 0.117 nM. Also, the “fold increase in affinity against hu1044-7” value in experiment [2] is ~3 倍 (fold). Also, in experiment [4], the “HRG刺激的乳腺癌MCF-7细胞增殖 IC50 (CCK-8)” value stood at 0.0133 µg/mL.

B4: hu1044-7抗体 (humanized anti-HER3 antibody variant hu1044-7) (antibody, V domains shown)
VH: QVQLVQSGAEVKKPGSSVKVSCKASGGTFSNYWIDWVRQAPGQGLEWMGEILPGSGGTDYNEKFKGKATITADTSTSTAYMELSSLRSEDTAVYYCARDDYDVFAYWGQGTLVTVSS
VL: DIVMTQSPGTLSLSPGERATLSCRSSKSLLHSNGITYLYWYQQKPGQAPRLLIYQMSNLASGVPDRFSSSGSGTDFTLTISRLEPEDFAVYYCAQNLELPWTFGQGTKVEIKR
As to B4, the Kd in experiment [1] was determined as 0.375 nM.
